Consider eight molecules from patent US20240059794A1 (PARASOL BIOTECH, published 2024).

B1: C12 (VHH)
VHH: QVQLVESGGGLVQPGGSLRLSCAASSNIFRAYGMDWYRQAPGKQREMVATIWLSGRSTYTDAVKGRFTISRDNAKNTVYLQMNNLKPEDTAVYYCNAGPTTASSVRQYWGQGTQVTVSS
notes: Alpaca VHH tested as culture supernatant of IPTG-induced HB2151 bacteria (pComb3XSS phagemid); also called clone C12
B2: C21 (VHH)
VHH: QVQLVESGGGLVQPGGSLRLSCTSSSNIFRIYGMDWYRQAPGKQREIVATIYLSGRTTYSDAVKGRFTISRDNAKDTVYLQMNSLKPEDTAVYYCNAGEPTASSVRQYWGQGTQVTVSS
notes: Alpaca VHH tested as culture supernatant of IPTG-induced HB2151 bacteria (pComb3XSS phagemid); also called clone C21
B3: C13 (VHH)
VHH: QVQLVESGGGLVQPGGSLRLSCAASSNIFRAYGMDWYRQAPGKQREMVATIWLSGRTTYTDAVKGRFTISRDNAKNTVYLQMNSLKPEDTAVYYCNAGAPTASSGRQYWGQGTQVTVSS
notes: Alpaca VHH tested as culture supernatant of IPTG-induced HB2151 bacteria (pComb3XSS phagemid); also called clone C13
B4: C15 (VHH)
VHH: QVQLVESGGGVVQPGGSLRLSCAASSNIFRAYGMDWYRQAPGKQREMVATIWLSGRSTYTDAVQGRFTISRDNAKNTVYLQMNNLKPEDTAVYYCNAGPTTASSVRQYWGQGTQVTVSS
notes: Alpaca VHH tested as culture supernatant of IPTG-induced HB2151 bacteria (pComb3XSS phagemid); also called clone C15
B5: C08 (VHH)
VHH: EVQLVESGGGLVQPGGSLRLSCAASSNIFRAYGMGWYRQAPGKQREMVAAIWLSGRTEYADAVQGRFTVSRDNAKNTVYLQMNSLKPEDTAVYYCNAGPPTATSVRQYWGQGTQVTVSS
notes: Alpaca VHH tested as culture supernatant of IPTG-induced HB2151 bacteria (pComb3XSS phagemid); also called C8; clone C08
B6: C27 (VHH)
VHH: EVQLVESGGGLVQPGGSLRLSCTSSSNIFKIYGMDWYRQAPGKQREIVATIYLSGRTTYSDAVKGRFTISRDNAKNTVYLQMNTLKPEDTAVYYCNAGETTASSVRQYWGQGTQVTVSS
notes: Alpaca VHH tested as culture supernatant of IPTG-induced HB2151 bacteria (pComb3XSS phagemid); also called clone C27
B7: C30 (VHH)
VHH: QVQLVESGGGLVQPGGSLRLSCAASGSIFRVYGMDWYRQAPGKQRELVASIFLSGRTNYADAVKGRFTLSRDNAKNTMYLQMNSLKPEDTAVYYCNAGETTASSVRQYWGQGTQVTVSS
notes: Alpaca VHH tested as culture supernatant of IPTG-induced HB2151 bacteria (pComb3XSS phagemid); also called clone C30
B8: C31 (VHH)
VHH: AVQLVESGGGLVQPGGSLRLSCAASGSIFRVYGMDWYRQAPGKQRELVASIWLSGRTNYADAVKGRFTLSRDNAKNTMYLQMNSLKPEDTAVYYCNAGETTASSVRQYWGQGTQVTISS
notes: Alpaca VHH tested as culture supernatant of IPTG-induced HB2151 bacteria (pComb3XSS phagemid); also called clone C31

The target of the assay is T1, GUCY2C protein (Ser24-Gln430) (Homo sapiens (Human), UniProt P25092 24-430).
T1 construct: Synthesized by GenScript and used as the immunogen; No tags are stated; also called extracellular region of the artificially synthesized GUCY2C protein; Protein GUCY2C
T1 sequence (P25092 24-430): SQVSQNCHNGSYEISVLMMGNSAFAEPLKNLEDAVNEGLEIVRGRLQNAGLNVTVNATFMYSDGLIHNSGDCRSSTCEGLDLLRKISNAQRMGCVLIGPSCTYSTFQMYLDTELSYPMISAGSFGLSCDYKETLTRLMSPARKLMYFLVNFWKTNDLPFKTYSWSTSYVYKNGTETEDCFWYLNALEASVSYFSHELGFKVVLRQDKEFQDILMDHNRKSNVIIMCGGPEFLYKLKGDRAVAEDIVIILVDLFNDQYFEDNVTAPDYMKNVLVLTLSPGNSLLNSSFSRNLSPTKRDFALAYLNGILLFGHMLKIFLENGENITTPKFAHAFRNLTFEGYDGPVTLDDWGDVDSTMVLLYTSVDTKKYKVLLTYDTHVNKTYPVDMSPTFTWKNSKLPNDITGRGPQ
The assay can be described thus: Screening ELISA: culture supernatant of the IPTG-induced HB2151 clone on a plate coated with 1 ug/ml GUCY2C; detection with peroxidase goat anti-alpaca IgG (VHH domain), TMB, absorbance at 450 nm; VHH concentration not given; negative control (NC) bar in the same chart is labelled 0.15. The procedure:
The phages of 3 rounds screening were transfected into HB2151 bacteria, and 100 ul of infected HB2151 bacteria were taken to scrape on the surface of 2×YT-AG solid culture dish. 96 single clones were picked and added into 2×YT medium, then cultured in a 96 deep-well plate. 0.8 mM IPTG was added into the medium when the bacteria grew to logarithmic phase and were cultured overnight at 25° C. The supernatant of medium was added to the 1 ug/ml GUCY2C coated ELISA plate which was contained in two control wells. After incubating for 2 hours at 37° C., the plate was washed 3 times with PBST. Peroxidase AffiniPure Goat anti-Alpaca IgG, VHH domain (Jackson Immumo Research) was added into the Elisa plate, incubated at 37° C. for 1 hour and washed 3 times with PBST. TMB solution was added for 20 minutes, then the reaction was stopped with 2M sulfuric acid. The absorbance value at 450 nm wavelength was read on the microplate reader (FIG. 2). Clones with an absorbance value 2.1 times higher than the negative control were considered positive clones and were sent to sequencing.
In general terms: An ELISA detects its analyte on a solid surface through an enzyme-linked reagent.
Turning to B1, the OD450 worked out at 2.

For the molecule B2, the OD450 was found to be 0.42.

Turning to B3, the OD450 was found to be 0.8.

B4 registered an OD450 of 1.

Molecule B5 yielded an OD450 of 0.86.

The molecule B6 showed an OD450 of 1.47.

B7: the OD450 was 0.93.

Regarding B8, the OD450 turned out to be 0.45.
